Earlier results as cited in paper PMC4485156.

Target: haptoglobin-hemoglobin complex (Homo sapiens) (UniProt P00738)
Chain of UniProt P00738 (P00738 19-406, chain 1 of 3): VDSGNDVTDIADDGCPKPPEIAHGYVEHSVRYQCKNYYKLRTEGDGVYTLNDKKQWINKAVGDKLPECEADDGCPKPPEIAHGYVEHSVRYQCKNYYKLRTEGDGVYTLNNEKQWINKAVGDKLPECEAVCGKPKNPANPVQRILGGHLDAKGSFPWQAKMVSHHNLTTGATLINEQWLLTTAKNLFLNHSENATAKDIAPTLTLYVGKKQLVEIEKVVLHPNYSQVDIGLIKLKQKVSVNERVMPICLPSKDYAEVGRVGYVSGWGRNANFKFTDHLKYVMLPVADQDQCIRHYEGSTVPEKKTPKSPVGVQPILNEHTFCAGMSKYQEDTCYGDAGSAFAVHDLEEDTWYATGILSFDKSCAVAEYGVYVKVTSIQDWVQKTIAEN
Chain of UniProt P00738 (P69905 2-142, chain 2 of 3, further chain): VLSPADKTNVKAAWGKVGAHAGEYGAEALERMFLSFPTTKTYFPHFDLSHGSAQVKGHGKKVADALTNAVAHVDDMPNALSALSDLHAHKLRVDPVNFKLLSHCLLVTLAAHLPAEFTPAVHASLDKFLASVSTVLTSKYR
Chain of UniProt P00738 (P68871 2-147, chain 3 of 3, further chain): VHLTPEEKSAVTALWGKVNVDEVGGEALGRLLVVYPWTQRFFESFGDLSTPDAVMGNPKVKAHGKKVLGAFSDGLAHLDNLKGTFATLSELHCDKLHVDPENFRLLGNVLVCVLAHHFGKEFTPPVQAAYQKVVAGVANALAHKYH

Kd: 19 nM
Substance: CD163 (from UniProt Q86VB7)
